Positions count from the first letter of the chain named.
T1: DR4 (TRAIL-R1) on cancer cells (human, UniProt O00220 24-468)
T1 sequence: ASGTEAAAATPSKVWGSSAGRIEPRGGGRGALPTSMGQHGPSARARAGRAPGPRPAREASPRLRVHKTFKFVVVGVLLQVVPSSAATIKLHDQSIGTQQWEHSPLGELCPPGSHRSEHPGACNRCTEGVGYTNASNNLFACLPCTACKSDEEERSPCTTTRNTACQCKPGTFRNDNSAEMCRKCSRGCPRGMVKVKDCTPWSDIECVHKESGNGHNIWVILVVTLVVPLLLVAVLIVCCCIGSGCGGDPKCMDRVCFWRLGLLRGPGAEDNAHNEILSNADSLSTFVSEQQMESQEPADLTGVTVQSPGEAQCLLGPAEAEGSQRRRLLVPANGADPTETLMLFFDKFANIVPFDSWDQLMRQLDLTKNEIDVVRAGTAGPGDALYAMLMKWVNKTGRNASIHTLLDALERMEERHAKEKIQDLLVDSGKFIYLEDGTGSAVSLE

T2: recombinant human TRAIL R1 (DR4)/Fc chimera (human, UniProt O00220 24-239)
T2 construct: bought (R&D Systems); not shown: Fc of the bought chimera (R&D Systems)
T2 sequence: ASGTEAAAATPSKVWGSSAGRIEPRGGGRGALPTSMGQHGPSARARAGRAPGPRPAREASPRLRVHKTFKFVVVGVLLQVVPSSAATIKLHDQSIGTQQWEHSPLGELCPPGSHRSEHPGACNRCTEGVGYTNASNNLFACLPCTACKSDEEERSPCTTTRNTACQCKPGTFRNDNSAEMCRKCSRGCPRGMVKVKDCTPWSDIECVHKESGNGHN

B1: 029-15.A3C (designed binder)
chain: EPPTQKPKKIVNAKKDVVNTKMFEELKSRLDTLAQEVALLKEQQALQTVCLKGTKVHMKCFLAFTQTKTFHEASEDCISRGGTLSTPQTGSENDALYEYLRQSVGNEAEIWLGLNRATLRPRWVDMTGARIAYKNWETEITAQPDGGKNCAVLSGAANGKWFDKRCRDQLPYICQFGIV
notes: ATRIMER; also called 4a8c
B2: 29p61P1E11 (designed binder)
chain: EPPTQKPKKIVNAKKDVVNTKMFEELKSRLDTLAQEVALLKEQQALQTVCLKGTKVHMKCFLAFTQTKTFHEASEDCISRGGTLSTPQTGSENDALYEYLRQSVGNEAEIWLGLNGWLEGVGWVDMTGARIAYKNWETEITAQPDGGWPFSNENCAVLSGAANGKWFDKRCRDQLPYICQFGIV
notes: ATRIMER; also called 029-61.1E11
B3: 71p88P1B3 (designed binder)
chain: B2 chain with V121S, W148V, P149Q, F150W, S151R, N152W
B4: 71p88P1F2 (designed binder)
chain: B2 chain with V121S, W148F, F150A, S151R, N152W
B5: 71p88P1G1 (designed binder)
chain: B2 chain with L118M, W148P, F150W, S151R, N152W
B6: 71p88P1G4 (designed binder)
chain: B2 chain with W117Y, L118M, E119T, W148R, P149S, F150W, S151K, N152W
B7: 029-15.A8G (designed binder)
chain: EPPTQKPKKIVNAKKDVVNTKMFEELKSRLDTLAQEVALLKEQQALQTVCLKGTKVHMKCFLAFTQTKTFHEASEDCISRGGTLSTPQTGSENDALYEYLRQSVGNEAEIWLGLNRAWLRPRWVDMTGARIAYKNWETEITAQPDGGTLVSGENCAVLSGAANGKWFDKRCRDQLPYICQFGIV
notes: ATRIMER; also called 1a7b
B8: 029-15.A1H (designed binder)
chain: B7 chain with W118V, T148W, L149V, V150L, S151G, E153K
notes: ATRIMER; also called 8b6b

What was measured:
[1] = target: T1, DR4 (TRAIL-R1) on cancer cells; assay: cell-based or functional assay
[2] = target: T3, recombinant human TRAIL R2 (DR5)/Fc chimera (human, UniProt O14763 54-182); assay: SPR (Biacore), DR5-Fc captured by anti-Fc, ATRIMER analyte; apparent
T3 construct: bought (R&D Systems); not shown: Fc of the bought chimera (R&D Systems)
Method: (§1) Immobilization of an anti-human IgG Fc antibody (Biacore) to the CM5 chip (Biacore) was performed using standard amine coupling chemistry and this surface was used to capture recombinant human DR4 or DR5 receptor Fc fusion protein (R&D Systems). ATRIMER™ dilutions (1-500 nM) were injected over the DR4 and DR5 receptor surface at 30 μl/min and kinetic constants were derived from the sensorgram data using the Biaevaluation software (version 3.1, Biacore). Data collection was 3 minutes for the association and 5 minutes for dissociation. The anti-human IgG surface was regenerated with a 30 s pulse of 3 M magnesium chloride. All sensorgrams were double-referenced against an activated and blocked flow-cell as well as buffer injections.

[3] = target: DR5 (TRAIL-R2) on cancer cells (human, UniProt O14763 56-440); assay: cell-based or functional assay
[4] = target: T2, recombinant human TRAIL R1 (DR4)/Fc …; assay: SPR (Biacore), ATRIMER
Method: as §1
Clones were then sub-cloned into pANA19 for expression and purification as described above. Cell killing activity was measured as described above, and binding affinity was measured by Biacore.

[5] = target: T1, DR4 (TRAIL-R1) on cancer cells; assay: cell-based or functional assay; remark: listed apart in the source
[6] = target: T1, DR4 (TRAIL-R1) on cancer cells; assay: cell-based or functional assay; remark: listed apart in the source
[7] = target: T1, DR4 (TRAIL-R1) on cancer cells; assay: cell-based or functional assay; remark: listed apart in the source

Molecule | Ka [2] | Kd [2] | koff [2] | kon [2] | % cell death of H2122 and A2780 cells, 20 µg/mL, 20 h [3] | ED50 ST486 (cell killing) [6] | Colo205 % killing (% of TRAIL activity) [7] | H2122 % killing (% of TRAIL activity) [7] | ST486 % killing (% of TRAIL activity) [7] | also measured
rhTRAIL-His (from UniProt P50591 95-281) (ligand) | – | – | – | – | – | – | – | – | – | EC50 Colo205 (cell killing) [1]: 0.06 nM; EC50 ST486 (cell killing) [1]: 0.06 nM
B1 | 1.74e+08 M⁻¹ | 5.74 nM | 0.000362 s⁻¹ | 63000 M⁻¹ s⁻¹ | > 50% | – | – | – | – | –
B2 | – | – | – | – | – | 217 nM | – | – | – | Kd [4]: 3.2 nM; koff [4]: 0.000302 s⁻¹; kon [4]: 93800 M⁻¹ s⁻¹; ED50 (nM) ST486 (cell killing) [5]: 217 nM
B3 | – | – | – | – | – | 3.2 nM | 42% | 0% | 88% | –
B4 | – | – | – | – | – | 168 nM | -18% | -5% | 58% | –
B5 | – | – | – | – | – | 80 nM | 12% | 0% | 78% | –
B6 | – | – | – | – | – | 75 nM | 24% | 5% | 75% | –
B7 | 6.43e+07 M⁻¹ | 15.6 nM | 0.000629 s⁻¹ | 40500 M⁻¹ s⁻¹ | > 50% | – | – | – | – | –
B8 | 2.56e+07 M⁻¹ | 39.1 nM | 0.000506 s⁻¹ | 12900 M⁻¹ s⁻¹ | > 50% | – | – | – | – | –
